How the values were obtained:
[1] = target: human LAG-3 protein (Lymphocyte activation gene-3) on the cell surface (human) (UniProt P18627); experiment: flow cytometry on LAG-3-expressing CHO cells, from Table 12
[2] = target: human LAG-3 protein (Lymphocyte activation gene-3) on the cell surface (human) (UniProt P18627); experiment: flow cytometry on LAG-3-transfected CHO cells; antibody 1 ng/ml
[3] = target: human LAG-3 protein (Lymphocyte activation gene-3) on the cell surface (human) (UniProt P18627); experiment: flow cytometry on LAG-3-transfected CHO cells; antibody 6 ng/ml
[4] = target: human LAG-3 protein (Lymphocyte activation gene-3) on the cell surface (human) (UniProt P18627); experiment: flow cytometry on LAG-3-transfected CHO cells; antibody 0.4 ng/ml
[5] = target: human LAG-3 protein (Lymphocyte activation gene-3) on the cell surface (human) (UniProt P18627); experiment: flow cytometry on LAG-3-transfected CHO cells; antibody 500 ng/ml
[6] = target: human LAG-3 protein (Lymphocyte activation gene-3) on the cell surface (human) (UniProt P18627); experiment: flow cytometry on LAG-3-transfected CHO cells; antibody 2000 ng/ml
[7] = target: IMP321 (recombinant soluble human LAG-3Ig fusion protein) (human) (UniProt P18627); experiment: Biacore, 17B4 antibody on the chip and LAG-3Ig in the running buffer
[8] = target: human LAG-3 protein (Lymphocyte activation gene-3) on the cell surface (human) (UniProt P18627); experiment: flow cytometry on CD4+ cells of SEB-stimulated PBMCs, mean of three donors
[9] = target: human LAG-3 protein (Lymphocyte activation gene-3) on the cell surface (human) (UniProt P18627); experiment: flow cytometry on CD4+ cells of SEB-stimulated PBMCs (Donor 1), from Table 13
[10] = target: human LAG-3 protein (Lymphocyte activation gene-3) on the cell surface (human) (UniProt P18627); experiment: flow cytometry on CD8+ cells of SEB-stimulated PBMCs (Donor 1), from Table 13
[11] = target: human LAG-3 protein (Lymphocyte activation gene-3) on the cell surface (human) (UniProt P18627); experiment: flow cytometry on CD4+ cells of SEB-stimulated PBMCs (Donor 1); antibody 7 ng/ml
[12] = target: human LAG-3 protein (Lymphocyte activation gene-3) on the cell surface (human) (UniProt P18627); experiment: flow cytometry on CD8+ cells of SEB-stimulated PBMCs (Donor 1); antibody 7 ng/ml
[13] = target: human LAG-3 protein (Lymphocyte activation gene-3) on the cell surface (human) (UniProt P18627); experiment: flow cytometry on CD4+ cells of SEB-stimulated PBMCs (Donor 1); antibody 0.4 ng/ml
[14] = target: human LAG-3 protein (Lymphocyte activation gene-3) on the cell surface (human) (UniProt P18627); experiment: flow cytometry on CD4+ cells of SEB-stimulated PBMCs (Donor 1); antibody 1.6 ng/ml
[15] = target: human LAG-3 protein (Lymphocyte activation gene-3) on the cell surface (human) (UniProt P18627); experiment: flow cytometry on CD8+ cells of SEB-stimulated PBMCs (Donor 1); antibody 0.4 ng/ml
[16] = target: human LAG-3 protein (Lymphocyte activation gene-3) on the cell surface (human) (UniProt P18627); experiment: flow cytometry on CD8+ cells of SEB-stimulated PBMCs (Donor 1); antibody 126 ng/ml
[17] = target: human LAG-3 protein (Lymphocyte activation gene-3) on the cell surface (human) (UniProt P18627); experiment: flow cytometry on CD8+ cells of SEB-stimulated PBMCs (Donor 1); antibody 541 ng/ml
[18] = target: human LAG-3 protein (Lymphocyte activation gene-3) on the cell surface (human) (UniProt P18627); experiment: flow cytometry on CD4+ cells of SEB-stimulated PBMCs (Donor 1); antibody 2326 ng/ml
[19] = target: human LAG-3 protein (Lymphocyte activation gene-3) on the cell surface (human) (UniProt P18627); experiment: flow cytometry on LAG-3-expressing CHO cells, mean of four independent experiments
[20] = target: human LAG-3 protein (Lymphocyte activation gene-3) on the cell surface (human) (UniProt P18627); experiment: flow cytometry on CD4+ cells of SEB-stimulated PBMCs (Donor 1); antibody 10000 ng/ml
[21] = target: human LAG-3 protein (Lymphocyte activation gene-3) on the cell surface (human) (UniProt P18627); experiment: flow cytometry on CD8+ cells of SEB-stimulated PBMCs (Donor 1); antibody 10000 ng/ml
[22] = target: human LAG-3 protein (Lymphocyte activation gene-3) on the cell surface (human) (UniProt P18627); experiment: flow cytometry on LAG-3-transfected CHO cells; antibody 0 ng/ml (no-antibody background)
[23] = target: human LAG-3 protein (Lymphocyte activation gene-3) on the cell surface (human) (UniProt P18627); experiment: flow cytometry on CD8+ cells of SEB-stimulated PBMCs (Donor 1); antibody 0 ng/ml (no-antibody background)
[24] = target: IMP321 (recombinant soluble human LAG-3Ig fusion protein) (human) (UniProt P18627); experiment: FACS, LAG-3Ig-Alexa 488 (1 µg/ml) pre-incubated with antibody 89 ng/ml, then bound to Raji (MHC class II+) cells
[25] = target: IMP321 (recombinant soluble human LAG-3Ig fusion protein) (human) (UniProt P18627); experiment: FACS, LAG-3Ig-Alexa 488 (1 µg/ml) with antibody 0 ng/ml (no-antibody value), bound to Raji (MHC class II+) cells
[26] = target: IMP321 (recombinant soluble human LAG-3Ig fusion protein) (human) (UniProt P18627); experiment: FACS, LAG-3Ig-Alexa 488 (1 µg/ml) pre-incubated with antibody 990 ng/ml, then bound to Raji (MHC class II+) cells
[27] = target: IMP321 (recombinant soluble human LAG-3Ig fusion protein) (human) (UniProt P18627); experiment: FACS, LAG-3Ig-Alexa 488 (1 µg/ml) pre-incubated with antibody 3300 ng/ml, then bound to Raji (MHC class II+) cells
[28] = target: IMP321 (recombinant soluble human LAG-3Ig fusion protein) (human) (UniProt P18627); experiment: FACS, LAG-3Ig-Alexa 488 (1 µg/ml) pre-incubated with antibody 11000 ng/ml, then bound to Raji (MHC class II+) cells

IMP321 (recombinant soluble human LAG-3Ig fusion protein) (human), sequence (P18627 23-450): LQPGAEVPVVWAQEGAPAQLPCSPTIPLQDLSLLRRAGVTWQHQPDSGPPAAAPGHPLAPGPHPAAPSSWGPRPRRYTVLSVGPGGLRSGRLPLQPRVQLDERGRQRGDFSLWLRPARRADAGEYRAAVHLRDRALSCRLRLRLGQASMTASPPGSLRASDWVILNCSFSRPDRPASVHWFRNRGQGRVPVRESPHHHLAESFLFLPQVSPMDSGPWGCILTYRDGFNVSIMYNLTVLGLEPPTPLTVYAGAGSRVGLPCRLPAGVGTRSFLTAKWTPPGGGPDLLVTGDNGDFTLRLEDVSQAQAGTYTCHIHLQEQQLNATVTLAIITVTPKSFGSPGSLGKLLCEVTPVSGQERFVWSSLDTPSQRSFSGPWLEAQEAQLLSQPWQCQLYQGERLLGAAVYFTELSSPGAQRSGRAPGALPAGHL
human LAG-3 protein (Lymphocyte activation gene-3) on the cell surface (human), sequence (P18627 other isoform, or with tags, fused parts or gaps): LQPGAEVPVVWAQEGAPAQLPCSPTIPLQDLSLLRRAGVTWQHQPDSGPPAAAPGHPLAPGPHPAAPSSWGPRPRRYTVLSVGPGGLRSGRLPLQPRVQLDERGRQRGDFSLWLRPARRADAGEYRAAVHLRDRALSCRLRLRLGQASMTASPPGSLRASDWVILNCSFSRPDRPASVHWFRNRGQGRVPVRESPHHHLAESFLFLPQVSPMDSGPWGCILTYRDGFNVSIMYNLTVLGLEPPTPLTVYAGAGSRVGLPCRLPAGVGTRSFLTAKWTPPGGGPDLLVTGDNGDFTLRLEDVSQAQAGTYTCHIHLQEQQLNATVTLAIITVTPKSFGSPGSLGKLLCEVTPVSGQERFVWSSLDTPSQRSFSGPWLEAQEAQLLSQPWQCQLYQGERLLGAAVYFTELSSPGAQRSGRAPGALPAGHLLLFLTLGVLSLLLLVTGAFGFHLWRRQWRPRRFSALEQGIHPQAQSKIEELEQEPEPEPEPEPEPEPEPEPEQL

Substance: antagonistic anti-LAG-3 mouse monoclonal antibody 17B4
- EC50 [1]: 0.7 nM
- MFI [2]: 247 MFI
- MFI [3]: 549 MFI
- MFI [4]: 179 MFI
- MFI [5]: 4760 MFI
- MFI [6]: 5480 MFI
- Ka [7]: 2.71e+08 M⁻¹
- Kd [7]: 3.69 nM
- koff [7]: 0.000818 s⁻¹
- kon [7]: 222000 M⁻¹ s⁻¹
- EC50 [8]: 0.8 nM
- EC50 [9]: 0.5 nM
- EC50 [10]: 0.7 nM
- MFI [11]: 324 MFI
- MFI [12]: 606 MFI
- MFI [13]: 143 MFI
- MFI [14]: 192 MFI
- MFI [15]: 195 MFI
- MFI [16]: 2840 MFI
- MFI [17]: 4090 MFI
- MFI [18]: 1940 MFI
- EC50 [19]: 0.7 nM
- MFI [20]: 1600 MFI
- MFI [21]: 5140 MFI
- MFI [22]: 156 MFI
- MFI [23]: 112 MFI
- MFI of sLAG-3Ig-Alexa 488 [24]: 214 MFI
- MFI of sLAG-3Ig-Alexa 488 [25]: 284 MFI
- MFI of sLAG-3Ig-Alexa 488 [26]: 35 MFI
- MFI of sLAG-3Ig-Alexa 488 [27]: 13 MFI
- MFI of sLAG-3Ig-Alexa 488 [28]: -11 MFI

Reference: patent publication US20190153112A1 (IMMUTEP S A S, published 2019)
